Assay: soluble on expression in E. coli; label from the status in PepcDB or PDB records
With “SLEECVCENYKLAVNCFVNNNRQCQCTSVGAQNTVICSKLAAKCLVMKAEMNGSKLGRRAKPEGALQNNDGLYDPDCDESGLFKAKQCNGTSTCWCVNTAGVRRTDKDTEITCSERVRTYWIIIELKHKAREKPYDSKSLRTALQKEITTRYQLDPKFITSILYENNVITIDLVQNSSQKTQNDVDIADVAYYFEKDVKGESLFHSKKMDLTVNGEQLDLDPGQTLIYYVDEKAPEFSEG” the “soluble on expression in E. coli” value was “not soluble”.
With “SLFARITFYPSLFYNVMMEKITARHWYDRIDENVILGALPFRSVAQEMVQKENIKAVVSMNEDYELWAFSNNKARWAKLGVEFLQLETTDIFESPCQEKLWKGVNFMNRFLPANDRMALLPAAPGELAEPGTIYVHSKAGRTRSATLVGCYLIMKNGWSPEQAVEHMRQCRPHILLRSKQWEALRLFHQTKCPPPK” the “soluble on expression in E. coli” value was “soluble”.
With “SLGRNWRSWRYAERADDLLISRGVLWREETVVPYGRMQLVEVTSGPVERHFGLASVQLHTAAAATDATIPGLDPAEAERLRDRLTELGEARSAG” the “soluble on expression in E. coli” value was “soluble”.
For “SLIKNEHVKKCDTWPSGGEMVVKDLTVKYVDDGNAILENICFSISPGQRVGLLGRTGSGKSTLLSAFLRMLNIKGEIQIDGVSWNSMTLEEWRKAFGVITQKVFIFSGTFRQNLDPNGKWRDEEIWKVADQVGLKSVIEQFPGQLNFTLVDGGYVLSHGHKQLMCLARSVLSKAKIILLDEPSANLDPITYQVIRRVLRQAFAGCTVVLCEARIEAMLDCDRFLVIEQGNVWQYESLQALLSEKSDFQRALSSSE”, the “soluble on expression in E. coli” value was “soluble”.
In the case of “SLKAIKNGTILTGTGETIKQGTLLIQDGKVLEVGQRVDTPANAKLIDATGKYVTPGLIDVHTHIGVFSEGLGRTGHDFNETTAAATPYIRAIDGIYPFDQGFEDARQSGVTTVQIMPGSANVIGGEMVTVKTAGTVVDEMIVRAPSGMKAAFGENPKNVHGGKGKLPATRMGVAALFRQQLYQAQDYLKRFEKGELEKRDLGMEQLAKVLRKEIPLRVHAHRADDIATVLRMVDEFDLEATIEHCTEGHLIADHIAKYNVKVSVGPTMTSRTKQELVNKGWHTLIELEKHGIPFSITTDHPVVTINHLVTSAIQAVKAGLSEQSAFQAITLRAAEHIGVEQQVGSLEKGKDGDFVIWSDHPFTATAQVEATYINGKCVTGSHC”, the “soluble on expression in E. coli” value is reported as “not soluble”.
With “SLKEVLESKLNDRPDANVLIGLGRNISGEAVLAELNKMPHLLVAGATGSGKSVCVNGIITSILMRAKPHEVKMMMIDPKMVELNVYNGIPHLLAPVVTDPKKASQALKKVVNEMERRYELFSHTGTRNIEGYNDYIKRANNEEGAKQPELPYIVVIVDELADLMMVASSDVEDSITRLSQMARAAGIHLIIATQRPSV” the “soluble on expression in E. coli” value was “not soluble”.
In the case of “SLKIYRSTLLHTPASPFAVPDALQTFSDGALAVGDTGTIAHLGTFTEVLAEVRAACPDAEVHDLRGGVLLPGFIDTHVHYPQVRVLGGLGMALLEWLDRNTLPEEARLADAAYARTIAGEFLHGLASHGTTTALVFGSHFAGAMDEFFAEAAARGLRVVAGQVVSDRLLRPELHTTPERAYAEGKALIERWHGQGRSLYAVTPRFSLSASEGILDACAALLTEFPDVRFTSHINENNQEIEVVRGLFPGARDYLDTYERAGLVTPRSVFAHNVHPNERELGVLAAQRCSVAHCPCSNSALGSGLFPLRRHLAAGVHVALGTDVGGGTGFSLLKEGLQAYFMQQLLGEEGAALSPAHLLYLATLAGAQALGLDGQVGDFTPGKQFDAVWLRPRAGSTLATVLAHAESEERTLAALFALGTGDDVERVWVGGGVVFAREAEA”, the “soluble on expression in E. coli” value is reported as “soluble”.
In the case of “SLKKIVESTTFPRTKQSITEDLKALGLKKGMTVLVHSSLSSIGWVNGGAVAVIQALIDVVTEEGTIVMPSQSVELSDPKEWGNPPVPEEWWDIIRESMPAYNSNYTPTTRGMGQIVELFRSYPEVKRSNHPNYSFVAWGKHKNKILNQHPLEFGLGEQSPLGKLYIRESYVLLLGADFDSSTCFHLAEYRIPYQKIINRGAPIIVEGKRVWKEYKELEFREELFQEVGQAFEAEHNMKVGKVGSANCRLFSLTEAVDFAEKWFINNDSKNIKK”, the “soluble on expression in E. coli” value is reported as “soluble”.
For “SLLGMNFAMHTTIDTKLVLFGPSENLVTEDDDARNMASKLIENGIITTACINYVKDKPAESKLREMRIVLEPVGKIISDYIKDGYVPVTF”, the “soluble on expression in E. coli” value was “not soluble”.
In the case of “SLNDNFKKQPHHLIYEELLQQGITLGITTRGDGLSDYPKNAFNMARYIDDRPYNITQHQLQLAEEIAFDRKNWVFPIQTHENKVACITKDDIGTNIDTLTDALHGIDAMYTYDSNVLLTMCYADCVPVYFYSTKHHFIALAHAGWRGTYTEIVKEVLKHVNFDLKDLHVVIGPSTSSSYEINDDIKNKFETLPIDSANYIETRGRDRHGIDLKKANAALLIYYGVPKENIYTTAYATSEHLELFFSYRLEKGQTGRMLAFIGQQ”, the “soluble on expression in E. coli” value is reported as “soluble”.
In the case of “SLNFRAEDLASGILRERVKVGASLADVDPMNIDKSVRFDSIGGLSHHIHALKEMVVFPLLYPEIFEKFKIQPPRGCLFYGPPGTGKTLVARALANECSQGDKKVAFFMRKGADCLSKWVGESERQLRLLFDQAYLMRPSIIFFDEIDGLAPVRSSRQDQIHSSIVSTLLALMDGLDNRGEIVVIGATNRLDSIDPALRRPGRFDREFLFNLPDQKARKHILQIHTRDWNPKLSDAFLGELAEKCVGYCGADIKALCTEAALIALRRRYPQIYASSHKLQLDVSSIVLSAQDFYHAMQNIVPASQRAVMSSGHALSPIIRPLLERSFNNILAVLQKVFPHAEISQSDKKEDIETLILEDSEDENALSIFETNCHSGSPKKQSSSAAIHKPYLHFTMSPYHQPTSYRPRLLLSGERGSGQTSHLAPALLHTLERFSVHRLDLPALYSVSAKTPEESCAQIFREARRTVPSIVYMPHIGDWWEAVSETVRATFLTLLQDIPSFSPIFLLSTSETMYSELPEEVKCIFRIQYEEVLYIQRPIEEDRRKFFQELILNQASMAPPRRKHAALCAMEVLPLALPSPPRQLSESEKSRMEDQEENTLRELRLFLRDVTKRLATDKRFNIFSKPVDIEEVSDYLEVIKEPMDLSTVITKIDKHNYLTAKDFLKDIDLICSNALEYNPDKDPGDKIIRHRACTLKDTAHAIIAAELDPEFNKLCEEIKEARI”, the “soluble on expression in E. coli” value is reported as “soluble”.
For “SLNGRPTTPNGAAGKWGDYRKCDTPKRTVDHMLNHIADTHSDIDFIIWTGDLPPHDVWNQTKEENLKVLKETVTQMTEKFPGIPIFPALGNHESAPVNSFPPPYVQQVDSSIAWLYDELDVQWRRWLPASVSHTVRRGAFYSVLVRPGYRIISLNMNYCNNKNWWLLLNSTDPATELQWFIYELQSAEFAGEKVHVIGHIPPGHSDCLKVWSRNYYKIVSRFESTITAQFFGHTHFDEFEVFYDPHDLSRATSIAYIGPSVTPYNDLNPGYRIYYIDGDHDETTRLVVDHESWIMNLKEANLYDYPIWYKLYSTRAAYGMKGLRPADWDQLINNMTDSKELFDLYYKHYWKASPVKPECDYECRKRILCDAKSGRSHDRKYFCEEVEAKIDESNKGWKDWLFS”, the “soluble on expression in E. coli” value was “not soluble”.
With “SLNSPIATVEVFTLTQPRKVPYLGALREGEVVNPNGYIVRKGNRTVYPTFDRSVLVRMTTEAGTVGWGETYGIVAPGAVAALINDLLAGFVIGRDASDPSAVYDDLYDMMRVRGYTGGFYVDALAALDIALWDIAGQEAGKSIRDLLGGGVDSFPAYVSGLPERTLKARGELAKYWQDRGFNAFKFATPVADDGPAAEIANLRQVLGPQAKIAADMHWNQTPERALELIAEMQPFDPWFAEAPVWTEDIAGLEKVSKNTDVPIAVGEEWRTHWDMRARIERCRIAIVQPEMGHKGITNFIRIGALAAEHGIDVIPHATVGAGIFLAASLQASSTLSMLKGHEFQHSIFEPNRRLLDGDMDCREGRYHLPSGPGLGVRPSEAALGLIERI” the “soluble on expression in E. coli” value was “soluble”.
In the case of “SLPHCETLLLEPIEGVLRITLNRPQSRNAMSLAMVGELRAVLAAVRDDRSVRALVLRGADGHFCAGGDIKDMAGARAAGAEAYRTLNRAFGSLLEEAQAAPQLLVALVEGAVLGGGFGLACVSDVAIAAADAQFGLPETSLGILPAQIAPFVVRRIGLTQARRLALTAARFDGREALRLGLVHFCEADADALEQRLEETLEQLRRCAPNANAATKALLLASESGELGALLDDAARQFAEAVGGAEGS”, the “soluble on expression in E. coli” value is reported as “not soluble”.
With “SLQAINPNWNVPKNIHAFTTTREGGVSLAPYLSFNLGDHVGDNKSAVKTNRTLLVEKFGLPQTPIFLTQTHSTRVIQLPYSGQNLEADAVYTNVPNQVCVVMTADCLPVLFTTTSGNEVAATHAGWRGLCDGVLEETVKYFQAKPEDIIAWFGPAIGPKAFQVGIDVVEKFVVVDEKAKLAFQPDAIEEGKYLSNLYQIATQRLNNLGITQIYGGNHCTFNEKEKFFSYRRDNQTGRMASVIWFE” the “soluble on expression in E. coli” value was “soluble”.
For “SLQQSAKKNAAPAPAAQPAPAPTQPQADGAQQAGWVVRCTSVSRDAPLECAMEQNAVLTKTGQTIVLINIRIAPDTRTPVALLQLPLGLNLPIGAKLQVDEGKTVDLQIQTCENRGCYASTPIAADLLAALRSGKQLKVSFQNMAKETIAIPMPLGDFAAAYDKIK”, the “soluble on expression in E. coli” value was “not soluble”.
For “SLRGWRGLRVYDMHVHLHEYSDREVEEILDADKSLVVVAVSDDLESAWRTLDLWHTFGGRVVPCLGFHPWNVREGRVWEAWEVLRLAYRYGVPCLGEVGLDRRFVDEYTWRVQNEVFDAFVQLAEDMGVMLNIHAPDAWKHVAHRIGWTSRARFMYHWYTGPATLPRALPEGRVWFSINSAIRVQEKSVRVAREIPLRSLVVESDGPYNYRGLRLSPLMVRETVKLVAEARGEDPGRLMEAISLNSERLLGLL”, the “soluble on expression in E. coli” value was “soluble”.
In the case of “SLSLLIDIVDETGSVSEEMLKEVENLLQFAAEREGVQDQAEVSVTIVSNDDIHQINKEYRGKDAPTDVISFALEEEGEGEIEIVGAEMPPVLGNIIISADRTREQAEEYNHSFKRELGFLAVHGFLHLLGYDHMTKEEEEEMFTKQKELLDAYGLKRS”, the “soluble on expression in E. coli” value is reported as “soluble”.
For “SLSPPVVMSRMFGAQLFNGTSADSGATVGFNPDYILNPGDSIQVRLWGAFTFDGALQVDPKGNIFLPNVGPVKVAGVSNSQLNALVTSKVKEVYQSNVNVYASLLQAQPVKVYVTGFVRNPGLYGGVTSDSLLNYLIKAGGVDPERGSYVDIVVKRGNRVRSNVNLYDFLLNGKLGLSQFADGDTIIVGPRQHTFSVQGDVFNSYDFEFRESSIPVTEALSWARPKPGATHITIMRKQGLQKRSEYYPISSAPGRMLQNGDTLIVSTDRYAGTIQVRVEGAHSGEHAMVLPYGSTMRAVLEKVRPNSMSQMNAVQLYRPSVAQRQKEMLNLSLQKLEEASLSAQSSTKEEASLRMQEAQLISRFVAKARTVVPKGEVILNESNIDSVLLEDGDVINIPEKTSLVMVHGEVLFPNAVSWQKGMTTEDYIEKCGGLTQKSGNARIIVIRQNGAAVNAEDVDSLKPGDEIMVLPKYESKNIEVTRGISTILYQLAVGAKVILSL”, the “soluble on expression in E. coli” value was “soluble”.
In the case of “SLTDRLERKLAIAANQDKADLLIKNGQIVDVFQLETFEGDVVIADGEIVAISDPGTYEAHEEVDAKGAFIAPAFIDGHVHIESSMVAPEQFAKVVVPHGVTTVIADPHEIANVAGVQGVEYMLDASEGIPLDVKMMVPSCVPATPFEHSGARLTAEEVAELFRDPRIFGLGEVMDYPAVLTRDQEMMAKLKAAHSEGRIVDGHGAGLDSVALNAYTAAGIGNDHEAVTPEEAKARLQRGMYLLIREGTAAKDFDALMKAITPMNSRRALFVTDDKHLDELVEEGSIDHHVRKAIQIGVNPLQAIQMASLNAAECFKLAKKGAIAPGFTADLLFIEDLQSLAITHVFKNGTCVAKNGKLIVPIRETVQPPQRLLESVNMKLVTKEQLELSLQSDEEAHLIQIQPGSIVTKHIREKVAVKDGVFIPSVARDQLKLVVAERHHKRGTVGVGIVKGFGLTKGAIATTVAHDSHNIVAVGTNDEDLLAAIKELENIQGGMTIVKDGKVLVSLPLTIGGLMSDQSYDVVCEQIKSVDAAIGALGFVGDFNPFLTLSFLALPVIPEIKLTDQGLFDVTSFSFIDQQVYAEETN”, the “soluble on expression in E. coli” value is reported as “soluble”.
In the case of “SLTNKLESNYNKIACNIFYDKYKNANEIIKALKLIDIDDNDFKKSFSIYSKKATSGNDEKIVKFLLFNIERHLSGGICDEQIATIEHILPSSLNDEKVHKLGNYILLEAKYNQQLKNKNFKEKIDIYSKSNFKLAQYVAENFKTWDTKSIDQYQNFLAKQALALWKF”, the “soluble on expression in E. coli” value is reported as “soluble”.
